The source of these data is publication PMC8280356, “Purification and Characterization of Nit_(phym), a Robust Thermostable Nitrilase From Paraburkholderia phymatum” (Frontiers in Bioengineering and Biotechnology, 2021).

This data set deals with the molecule itself. The data set can be described thus: SEC; analytical gel filtration on Superdex 200 Increase 10/300 GL; 100 uL of purified protein at 3.9 mg/mL; mobile phase 50 mM Tris-HCl pH 8.0, 0.15 mM NaCl, 10% glycerol, 0.3 mL/min; elution volume compared to a calibration curve of proteins of known molecular weight. On the technique in general: Size exclusion chromatography separates by hydrodynamic size, large species first.

B1: Nit_(phym), nitrilase from Paraburkholderia phymatum DSM 17167 (enzyme, UniProt B2JQY2 1-340, looked up)
chain: MSDQRVIRAAAVQIAPDFERPGGTLDRVCAAIDEAASKGVQLIVFPETFVPYYPYFSFVRPPVASGADHMRLYEQAVVVPGPVTHAVSERARRHAMVVVLGVNERDHGSLYNTQLVFDIDGCQVLKRRKITPTFHERMIWGQGDAAGLKVARTGIARVGALACWEHYNPLARYALMTQHEEIHCSQFPGSLVGPIFAEQIEVTIRHHALESGCFVVNSTGWLSDAQIESVTTDPKLQKALRGGCMTAIVSPEGQHLAEPLREGEGMVVADLDMALITKRKRMMDSVGHYARPELLSLAINDRPAMPVVPMSMSFERAGADVAPEIISGGQDECQHEPVAG
notes: nitrilase Nit_(phym) (NIT188) from Paraburkholderia phymatum DSM 17167, Uniprot ID B2JQY2; subunit with an apparent molecular mass of 37 kDa on SDS-PAGE; also called NIT188
Usually stoichiometry N stands for the number of molecules, sites or subunits per partner or assembly. As to B1, the “stoichiometry N” value is > 18 subunits.
